What is called Kd is the equilibrium constant for the complex coming apart.

In assay [1] the target is ChlI, C-terminally attached to the surface via His6 tag (Synechocystis) (UniProt P51634). Kind of assay: single molecule force spectroscopy.
Assay [2] has as its target ChlD R289A (Synechocystis, UniProt P72772 1-676, R289A). Put plainly: MST.
The target in assay [3] is ChlD wild-type (Synechocystis, UniProt P72772 1-676). Put plainly: MST.
In assay [4] the target is ChlD R208A (Synechocystis, UniProt P72772 1-676, R208A). Kind of assay: MST.
Chain of ChlD R208A (P72772 whole entry R208A): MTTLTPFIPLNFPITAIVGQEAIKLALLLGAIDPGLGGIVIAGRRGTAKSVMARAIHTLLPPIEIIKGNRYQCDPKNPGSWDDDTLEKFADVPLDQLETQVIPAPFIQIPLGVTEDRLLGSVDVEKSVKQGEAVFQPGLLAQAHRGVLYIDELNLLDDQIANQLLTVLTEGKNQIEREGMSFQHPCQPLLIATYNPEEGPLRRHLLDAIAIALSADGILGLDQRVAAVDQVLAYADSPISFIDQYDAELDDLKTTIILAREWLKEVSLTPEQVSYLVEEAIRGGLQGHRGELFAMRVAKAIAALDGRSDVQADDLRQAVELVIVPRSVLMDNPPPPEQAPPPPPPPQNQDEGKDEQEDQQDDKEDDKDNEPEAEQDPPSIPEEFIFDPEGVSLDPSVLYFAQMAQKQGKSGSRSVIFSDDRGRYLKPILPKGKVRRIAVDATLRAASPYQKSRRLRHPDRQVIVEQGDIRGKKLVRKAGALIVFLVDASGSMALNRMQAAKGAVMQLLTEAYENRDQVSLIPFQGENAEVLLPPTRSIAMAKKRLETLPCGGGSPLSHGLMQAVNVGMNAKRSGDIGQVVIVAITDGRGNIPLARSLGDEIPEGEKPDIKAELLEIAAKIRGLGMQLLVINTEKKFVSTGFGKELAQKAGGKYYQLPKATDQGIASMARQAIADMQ

Chain of ChlD wild-type (P72772 whole entry): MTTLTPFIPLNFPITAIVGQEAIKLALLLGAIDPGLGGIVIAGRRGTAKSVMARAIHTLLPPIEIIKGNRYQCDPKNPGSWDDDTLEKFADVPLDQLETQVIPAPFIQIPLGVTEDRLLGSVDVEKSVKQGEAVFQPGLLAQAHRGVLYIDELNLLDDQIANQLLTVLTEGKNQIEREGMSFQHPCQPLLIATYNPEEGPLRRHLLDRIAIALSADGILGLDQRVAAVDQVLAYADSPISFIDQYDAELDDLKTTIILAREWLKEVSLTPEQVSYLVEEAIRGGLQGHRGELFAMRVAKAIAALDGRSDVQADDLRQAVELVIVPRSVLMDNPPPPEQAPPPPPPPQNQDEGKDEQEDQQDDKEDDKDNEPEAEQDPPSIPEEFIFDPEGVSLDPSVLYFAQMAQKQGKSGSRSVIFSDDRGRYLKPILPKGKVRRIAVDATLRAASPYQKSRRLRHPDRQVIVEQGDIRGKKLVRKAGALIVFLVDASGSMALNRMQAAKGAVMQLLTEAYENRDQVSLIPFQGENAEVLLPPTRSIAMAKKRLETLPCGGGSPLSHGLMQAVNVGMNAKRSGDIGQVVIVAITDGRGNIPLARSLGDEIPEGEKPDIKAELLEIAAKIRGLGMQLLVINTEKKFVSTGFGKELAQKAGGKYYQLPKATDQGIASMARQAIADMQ
Chain of ChlD R289A (P72772 whole entry R289A): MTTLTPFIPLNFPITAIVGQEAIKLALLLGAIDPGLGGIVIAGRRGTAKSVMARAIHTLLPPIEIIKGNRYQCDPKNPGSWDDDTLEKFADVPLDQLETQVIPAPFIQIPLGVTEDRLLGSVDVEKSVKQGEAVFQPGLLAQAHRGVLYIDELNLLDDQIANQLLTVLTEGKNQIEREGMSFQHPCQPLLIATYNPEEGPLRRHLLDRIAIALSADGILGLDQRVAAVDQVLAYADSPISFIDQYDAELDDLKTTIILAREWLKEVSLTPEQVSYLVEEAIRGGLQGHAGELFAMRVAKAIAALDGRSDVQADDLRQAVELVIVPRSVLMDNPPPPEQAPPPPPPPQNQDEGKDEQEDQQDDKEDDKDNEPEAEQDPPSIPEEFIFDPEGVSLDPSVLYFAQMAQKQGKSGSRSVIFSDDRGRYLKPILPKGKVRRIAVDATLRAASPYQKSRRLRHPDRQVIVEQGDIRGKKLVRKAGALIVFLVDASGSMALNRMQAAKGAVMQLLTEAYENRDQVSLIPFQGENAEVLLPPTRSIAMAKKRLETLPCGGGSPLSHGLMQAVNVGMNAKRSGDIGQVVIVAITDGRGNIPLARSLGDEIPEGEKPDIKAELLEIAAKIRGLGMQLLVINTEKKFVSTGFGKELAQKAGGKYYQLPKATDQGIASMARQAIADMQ

On to “ChlD tagged at the C-terminus with a His6 sequence (from UniProt P72772 1-676) (natural protein)”, for which, in assay [1], the interaction probability was 30.5%, the modal interaction force is 108 pN and the rupture force is 109 pN.

B1: ChlI C244S Alexa Fluor 488 (natural protein, Synechocystis, UniProt P51634 1-357, looked up)
chain: MTATLAAPSKTRRVVFPFTAIVGQDEMKLALLLNVIDPKIGGVMIMGDRGTGKSTTIRALADLLPEIEVVANDPFNSSPSDPEMMSEEVRIRVDSQEPLSIVKKKVTMVDLPLGATEDRVCGTIDIEKALSEGVKAFEPGLLAKANRGILYVDEVNLLDDHLVDVLLDSAAGGWNTVEREGISIRHPARFVLVGSGNPEEGELRPQLLDRFGMHAEIRTVREPELRVKIVEQRTEFDQNPHPFSDQYQTEQEALQAKIVNAQNLLPQVTIDYDYRVKVSEVCAELDVDGLRGDIVTNRAAKALAAFEGRTEVTVDDISRVIVLCLRHRLRKDPLESIDSGSKVEKVFKRVFGVVDEA
modifications: Alexa Fluor 488 C5 maleimide label (labelled residue not stated)
B1: the Kd stood at 2540 ± 219 nM in assay [2], 7.6 ± 0.8 nM in assay [3] and 328 ± 67.7 nM in assay [4].

The values above are taken from article PMC4882731 (Journal of the American Chemical Society, 2016).
